Experimental data published in patent US20110262447A1 (RAMOT AT TEL AVIV UNIVERSITY, published 2011).

Key:
[1] = target: T1, Bovine Serum Albumin (bovine, UniProt P02769 25-607); test: ELISA, group 5, BSA
T1 construct: also called BSA

[2] = target: Streptavidin (UniProt P22629 37-163); test: ELISA, group 6, Streptavidin
[3] = target: multiple antigen peptide presenting amino acids 144-153 of the human prion protein (MAP-PrP […]) (human); test: ELISA, group 3, MAP-PrP

Sequence of Streptavidin (P22629 37-163 limits assumed): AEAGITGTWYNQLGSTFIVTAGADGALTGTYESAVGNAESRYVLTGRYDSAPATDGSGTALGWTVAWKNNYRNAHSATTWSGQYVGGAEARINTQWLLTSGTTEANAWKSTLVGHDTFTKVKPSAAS
T1 sequence (P02769 25-607 limits assumed): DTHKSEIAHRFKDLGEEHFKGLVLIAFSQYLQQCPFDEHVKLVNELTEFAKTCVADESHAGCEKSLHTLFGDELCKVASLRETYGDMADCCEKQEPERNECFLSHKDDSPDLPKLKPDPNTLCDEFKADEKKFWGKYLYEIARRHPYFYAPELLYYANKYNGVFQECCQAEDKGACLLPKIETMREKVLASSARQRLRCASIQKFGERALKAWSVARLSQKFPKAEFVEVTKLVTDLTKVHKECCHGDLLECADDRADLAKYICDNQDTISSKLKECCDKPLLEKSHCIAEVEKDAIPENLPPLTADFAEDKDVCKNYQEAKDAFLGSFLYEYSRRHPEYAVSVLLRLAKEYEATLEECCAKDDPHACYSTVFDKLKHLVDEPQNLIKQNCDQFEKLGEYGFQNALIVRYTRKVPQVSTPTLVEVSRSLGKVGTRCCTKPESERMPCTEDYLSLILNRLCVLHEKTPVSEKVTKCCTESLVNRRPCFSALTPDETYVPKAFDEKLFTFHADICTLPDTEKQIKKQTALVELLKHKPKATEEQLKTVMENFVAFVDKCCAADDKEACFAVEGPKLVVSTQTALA

B1: A4 scFv (scFv)
scFv: VQLLESGGGLVQPGGSLRLSCAASGFTFSGYWMHWVRQAPGKGLEWVSEISGSGDSTHYGDSVKGRFTISRDNSKNTLYLQMNSLRAEDTAVYYCARGRNGSLDYWGQGTLVTVSSGSAGGGGSGGGGSGGGGSDIVLTQPPSASGTPGQRVTISCTGNSSNIGAGYDVHWYQQLPGKAPKLLIYSNNQRPSGVPDRFSGSKSGTSASLAISGLRSEDEADYYCAAWDDSLSSVVFGGGTKLTV
**Q.** Does B1 bind [1]?
**A.** no binding (tested: not given on the sheet)

**Q.** Does B1 bind [2]?
**A.** no binding (tested: not given on the sheet)

B2: F2 scFv (scFv)
scFv: VQLLESGGGLVQPGGSLRLSCAASGFTFSGYWMHWVRQAPGKGLEWVSEISGSGDSTHYGDSVKGRFTISRDNSKNTLYLQMNSLRAEDTAVYYCARGRNGSLDYWGQGTLVTVSSGSAGGGGSGGGGSGGGGSDIVLTQPPSASGTPGQRVTISCSGTSSNIGADYDVHWYQQLPGKAPKLLIYDNNKRPSGVSDRFSGSKSGTSASLAISGLRSEDEADYYCAAWDSSLSSVVFGGGTQLTV
**Q.** Does B2 bind [3]?
**A.** no binding (tested: not given on the sheet)

**Q.** Does B2 bind [2]?
**A.** no binding (tested: not given on the sheet)

B3: B6 scFv (scFv)
scFv: VQLLESGGGLVQPGGSLRLSCAASGFTFSGYWMHWVRQAPGKGLEWVSEISGSGDSTHYGDSVKGRFTISRDNSKNTLYLQMNSLRAEDTAVYYCARGRNGSLDYWGQGTLVTVSSGSAGGGGSGGGGSGGGGSDIVLTQPPSASGTPGQRVTISCTGSSANIGAGYDVHWYQQLPGKAPKLLIYDNDKRPSGVPDRFSGSKSGTSASLAISGLRSEDEADYYCAAWDDRLSGVVFGGGTKVTV
**Q.** Does B3 bind [1]?
**A.** no binding (tested: not given on the sheet)

**Q.** Does B3 bind [3]?
**A.** no binding (tested: not given on the sheet)

**Q.** Does B3 bind [2]?
**A.** no binding (tested: not given on the sheet)
